Measured values from patent US20240270846A1 (published 2024).
Changes are numbered by the printed parent chain. Numbers in names are those of the source. Blank lines part the entries; values can stand above or below the binder they belong to.

Target: T1, CD3 epsilon homodimer protein (UniProt P07766 23-126)
T1 construct: also called CD3 (CD3 epsilon)
Test: SPR, CD3e homodimer on chip;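 note: surface plasmon resonance at 25 degrees C, antibodies flowed as analyte over CD3 epsilon homodimer amine-coupled to a CM4 chip, running buffer HBS-EP+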

T1 sequence (P07766 23-126): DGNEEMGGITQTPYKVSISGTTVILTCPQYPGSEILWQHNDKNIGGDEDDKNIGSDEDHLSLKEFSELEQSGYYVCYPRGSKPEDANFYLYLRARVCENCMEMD

ratio of amounts bound (altered form / unaltered GLS3000 antibody): 0.87
B1: GLS3000 R24Y one-arm antibody (H chain CE115HA000) (antibody, human IgG1, kappa, L234A L235A, N297A, name in Kabat numbering)
heavy: QVQLVESGGGVVQPGRSLRLSCAASGFTFSNAWMHWVRQAPGKGLEWVAQIKAKSNNYATYYAESVKGRFTISRDDSKNSLYLQMNSLKTEDTAVYYCRYVHYGAYYGVDAWGQGTTVTVSSASTKGPSVFPLAPSSKSTSGGTAALGCLVKDYFPEPVTVSWNSGALTSGVHTFPAVLQSSGLYSLSSVVTVPSSSLGTQTYICNVNHKPSNTKVDKKVEPKSCDKTHTCPPCPAPEAAGGPSVFLFPPKPKDTLMISRTPEVTCVVVDVSHEDPEVKFNWYVDGVEVHNAKTKPREEQYASTYRVVSVLTVLHQDWLNGKEYKCKVSNKALPAPIEKTISKAKGQPREPQVYTLPPSRCELTKNQVSLSCAVKGFYPSDIAVEWESNGQPENNYKTTPPVLDSDGSFFLVSKLTVDKSRWQQGNVFSCSVMHEALHNHYTQKSLSLSPDYKDDDDK
chain: EPKSSDKTHTCPPCPAPELLGGPSVFLFPPKPKDTLMISRTPEVTCVVVDVSHEDPEVKFNWYVDGVEVHNAKTKPREEQYNSTYRVVSVLTVLHQDWLNGKEYKCKVSNKALPAPIEKTISKAKGQPREPQVCTLPPSRDELTKNQVSLWCLVKGFYPSDIAVEWESNGQPENNYKTTPPVLDSDGSFFLYSKLTVDKSRWQQGNVFSCSVMHEALHNRYTQKSLSLSP
light: DIVMTQSPLSLPVTPGEPASISCYSSQSLVHSNRNTYLHWYQQKPGQAPRLLIYKVSNRFSGVPDRFSGSGSGTDFTLKISRVEAEDVGVYYCGQGTQVPYTFGQGTKLEIKRTVAAPSVFIFPPSDEQLKSGTASVVCLLNNFYPREAKVQWKVDNALQSGNSQESVTEQDSKDSTYSLSSTLTLSKADYEKHKVYACEVTHQGLSSPVTKSFNRGEC
notes: one-arm antibody

ratio of amounts bound (altered form / unaltered GLS3000 antibody): 0.31
B2: GLS3000 R29P one-arm antibody (H chain CE115HA000) (antibody, human IgG1, kappa, L234A L235A, N297A, name in Kabat numbering)
heavy: B1 heavy
chain: B1 chain
light: B1 light with Y24R, R34P
notes: one-arm antibody

ratio of amounts bound (altered form / unaltered GLS3000 antibody): 0.21
B3: GLS3000 S25E one-arm antibody (H chain CE115HA000) (antibody, human IgG1, kappa, L234A L235A, N297A, name in Kabat numbering)
heavy: B1 heavy
chain: B1 chain
light: B1 light with Y24R, S25E
notes: one-arm antibody

ratio of amounts bound (altered form / unaltered GLS3000 antibody): 0.92
B4: GLS3000 S25A one-arm antibody (H chain CE115HA000) (antibody, human IgG1, kappa, L234A L235A, N297A, name in Kabat numbering)
heavy: B1 heavy
chain: B1 chain
light: B1 light with Y24R, S25A
notes: one-arm antibody

ratio of amounts bound (altered form / unaltered GLS3000 antibody): 0.34
B5: GLS3000 R29V one-arm antibody (H chain CE115HA000) (antibody, human IgG1, kappa, L234A L235A, N297A, name in Kabat numbering)
heavy: B1 heavy
chain: B1 chain
light: B1 light with Y24R, R34V
notes: one-arm antibody

ratio of amounts bound (altered form / unaltered GLS3000 antibody): 1
B6: GLS3000 S27aI one-arm antibody (H chain CE115HA000) (antibody, human IgG1, kappa, L234A L235A, N297A, name in Kabat numbering)
heavy: B1 heavy
chain: B1 chain
light: B1 light with Y24R, S28I
notes: one-arm antibody

ratio of amounts bound (altered form / unaltered GLS3000 antibody): 0.37
B7: GLS3000 R29I one-arm antibody (H chain CE115HA000) (antibody, human IgG1, kappa, L234A L235A, N297A, name in Kabat numbering)
heavy: B1 heavy
chain: B1 chain
light: B1 light with Y24R, R34I
notes: one-arm antibody

ratio of amounts bound (altered form / unaltered GLS3000 antibody): 0.83
B8: GLS3000 S25T one-arm antibody (H chain CE115HA000) (antibody, human IgG1, kappa, L234A L235A, N297A, name in Kabat numbering)
heavy: B1 heavy
chain: B1 chain
light: B1 light with Y24R, S25T
notes: one-arm antibody

ratio of amounts bound (altered form / unaltered GLS3000 antibody): 0.67
B9: GLS3000 R29G one-arm antibody (H chain CE115HA000) (antibody, human IgG1, kappa, L234A L235A, N297A, name in Kabat numbering)
heavy: B1 heavy
chain: B1 chain
light: B1 light with Y24R, R34G
notes: one-arm antibody

ratio of amounts bound (altered form / unaltered GLS3000 antibody): 0.81
B10: GLS3000 S27aE one-arm antibody (H chain CE115HA000) (antibody, human IgG1, kappa, L234A L235A, N297A, name in Kabat numbering)
heavy: B1 heavy
chain: B1 chain
light: B1 light with Y24R, S28E
notes: one-arm antibody

ratio of amounts bound (altered form / unaltered GLS3000 antibody): 1.1
B11: GLS3000 S27aN one-arm antibody (H chain CE115HA000) (antibody, human IgG1, kappa, L234A L235A, N297A, name in Kabat numbering)
heavy: B1 heavy
chain: B1 chain
light: B1 light with Y24R, S28N
notes: one-arm antibody

ratio of amounts bound (altered form / unaltered GLS3000 antibody): 0.41
B12: GLS3000 R29D one-arm antibody (H chain CE115HA000) (antibody, human IgG1, kappa, L234A L235A, N297A, name in Kabat numbering)
heavy: B1 heavy
chain: B1 chain
light: B1 light with Y24R, R34D
notes: one-arm antibody

ratio of amounts bound (altered form / unaltered GLS3000 antibody): 0.56
B13: GLS3000 R29L one-arm antibody (H chain CE115HA000) (antibody, human IgG1, kappa, L234A L235A, N297A, name in Kabat numbering)
heavy: B1 heavy
chain: B1 chain
light: B1 light with Y24R, R34L
notes: one-arm antibody

ratio of amounts bound (altered form / unaltered GLS3000 antibody): 0.69
B14: GLS3000 R29Y one-arm antibody (H chain CE115HA000) (antibody, human IgG1, kappa, L234A L235A, N297A, name in Kabat numbering)
heavy: B1 heavy
chain: B1 chain
light: B1 light with Y24R, R34Y
notes: one-arm antibody

ratio of amounts bound (altered form / unaltered GLS3000 antibody): 0.79
B15: GLS3000 S27aD one-arm antibody (H chain CE115HA000) (antibody, human IgG1, kappa, L234A L235A, N297A, name in Kabat numbering)
heavy: B1 heavy
chain: B1 chain
light: B1 light with Y24R, S28D
notes: one-arm antibody

ratio of amounts bound (altered form / unaltered GLS3000 antibody): 0.63
B16: GLS3000 R29T one-arm antibody (H chain CE115HA000) (antibody, human IgG1, kappa, L234A L235A, N297A, name in Kabat numbering)
heavy: B1 heavy
chain: B1 chain
light: B1 light with Y24R, R34T
notes: one-arm antibody

ratio of amounts bound (altered form / unaltered GLS3000 antibody): 1.03
B17: GLS3000 S27aG one-arm antibody (H chain CE115HA000) (antibody, human IgG1, kappa, L234A L235A, N297A, name in Kabat numbering)
heavy: B1 heavy
chain: B1 chain
light: B1 light with Y24R, S28G
notes: one-arm antibody

ratio of amounts bound (altered form / unaltered GLS3000 antibody): 0.63
B18: GLS3000 R29A one-arm antibody (H chain CE115HA000) (antibody, human IgG1, kappa, L234A L235A, N297A, name in Kabat numbering)
heavy: B1 heavy
chain: B1 chain
light: B1 light with Y24R, R34A
notes: one-arm antibody

ratio of amounts bound (altered form / unaltered GLS3000 antibody): 0.24
B19: GLS3000 S25L one-arm antibody (H chain CE115HA000) (antibody, human IgG1, kappa, L234A L235A, N297A, name in Kabat numbering)
heavy: B1 heavy
chain: B1 chain
light: B1 light with Y24R, S25L
notes: one-arm antibody

ratio of amounts bound (altered form / unaltered GLS3000 antibody): 0.18
B20: GLS3000 S25D one-arm antibody (H chain CE115HA000) (antibody, human IgG1, kappa, L234A L235A, N297A, name in Kabat numbering)
heavy: B1 heavy
chain: B1 chain
light: B1 light with Y24R, S25D
notes: one-arm antibody

ratio of amounts bound (altered form / unaltered GLS3000 antibody): 0.36
B21: GLS3000 R54D one-arm antibody (H chain CE115HA000) (antibody, human IgG1, kappa, L234A L235A, N297A, name in Kabat numbering)
heavy: B1 heavy
chain: B1 chain
light: B1 light with Y24R, R59D
notes: one-arm antibody

ratio of amounts bound (altered form / unaltered GLS3000 antibody): 0.73
B22: GLS3000 S25V one-arm antibody (H chain CE115HA000) (antibody, human IgG1, kappa, L234A L235A, N297A, name in Kabat numbering)
heavy: B1 heavy
chain: B1 chain
light: B1 light with Y24R, S25V
notes: one-arm antibody

ratio of amounts bound (altered form / unaltered GLS3000 antibody): 0.86
B23: GLS3000 S26D one-arm antibody (H chain CE115HA000) (antibody, human IgG1, kappa, L234A L235A, N297A, name in Kabat numbering)
heavy: B1 heavy
chain: B1 chain
light: B1 light with Y24R, S26D
notes: one-arm antibody

ratio of amounts bound (altered form / unaltered GLS3000 antibody): 0.69
B24: GLS3000 R54A one-arm antibody (H chain CE115HA000) (antibody, human IgG1, kappa, L234A L235A, N297A, name in Kabat numbering)
heavy: B1 heavy
chain: B1 chain
light: B1 light with Y24R, R59A
notes: one-arm antibody

ratio of amounts bound (altered form / unaltered GLS3000 antibody): 0.53
B25: GLS3000 S25I one-arm antibody (H chain CE115HA000) (antibody, human IgG1, kappa, L234A L235A, N297A, name in Kabat numbering)
heavy: B1 heavy
chain: B1 chain
light: B1 light with Y24R, S25I
notes: one-arm antibody

ratio of amounts bound (altered form / unaltered GLS3000 antibody): 0.99
B26: GLS3000 S27aP one-arm antibody (H chain CE115HA000) (antibody, human IgG1, kappa, L234A L235A, N297A, name in Kabat numbering)
heavy: B1 heavy
chain: B1 chain
light: B1 light with Y24R, S28P
notes: one-arm antibody

ratio of amounts bound (altered form / unaltered GLS3000 antibody): 1.1
B27: GLS3000 S27aY one-arm antibody (H chain CE115HA000) (antibody, human IgG1, kappa, L234A L235A, N297A, name in Kabat numbering)
heavy: B1 heavy
chain: B1 chain
light: B1 light with Y24R, S28Y
notes: one-arm antibody

ratio of amounts bound (altered form / unaltered GLS3000 antibody): 0.78
B28: GLS3000 S26P one-arm antibody (H chain CE115HA000) (antibody, human IgG1, kappa, L234A L235A, N297A, name in Kabat numbering)
heavy: B1 heavy
chain: B1 chain
light: B1 light with Y24R, S26P
notes: one-arm antibody

ratio of amounts bound (altered form / unaltered GLS3000 antibody): 0.31
B29: GLS3000 S25M one-arm antibody (H chain CE115HA000) (antibody, human IgG1, kappa, L234A L235A, N297A, name in Kabat numbering)
heavy: B1 heavy
chain: B1 chain
light: B1 light with Y24R, S25M
notes: one-arm antibody

ratio of amounts bound (altered form / unaltered GLS3000 antibody): 1.01
B30: GLS3000 S25P one-arm antibody (H chain CE115HA000) (antibody, human IgG1, kappa, L234A L235A, N297A, name in Kabat numbering)
heavy: B1 heavy
chain: B1 chain
light: B1 light with Y24R, S25P
notes: one-arm antibody

ratio of amounts bound (altered form / unaltered GLS3000 antibody): 0.68
B31: GLS3000 R29S one-arm antibody (H chain CE115HA000) (antibody, human IgG1, kappa, L234A L235A, N297A, name in Kabat numbering)
heavy: B1 heavy
chain: B1 chain
light: B1 light with Y24R, R34S
notes: one-arm antibody

ratio of amounts bound (altered form / unaltered GLS3000 antibody): 0.74
B32: GLS3000 S26E one-arm antibody (H chain CE115HA000) (antibody, human IgG1, kappa, L234A L235A, N297A, name in Kabat numbering)
heavy: B1 heavy
chain: B1 chain
light: B1 light with Y24R, S26E
notes: one-arm antibody
